Experimental findings from PMC4120242 are described below.

This assay deals with endogenous FcγRI on human monocytes (human (endogenous in blood monocytes)) (UniProt P12314).
UniProt P12314, sequence (P12314 16-374): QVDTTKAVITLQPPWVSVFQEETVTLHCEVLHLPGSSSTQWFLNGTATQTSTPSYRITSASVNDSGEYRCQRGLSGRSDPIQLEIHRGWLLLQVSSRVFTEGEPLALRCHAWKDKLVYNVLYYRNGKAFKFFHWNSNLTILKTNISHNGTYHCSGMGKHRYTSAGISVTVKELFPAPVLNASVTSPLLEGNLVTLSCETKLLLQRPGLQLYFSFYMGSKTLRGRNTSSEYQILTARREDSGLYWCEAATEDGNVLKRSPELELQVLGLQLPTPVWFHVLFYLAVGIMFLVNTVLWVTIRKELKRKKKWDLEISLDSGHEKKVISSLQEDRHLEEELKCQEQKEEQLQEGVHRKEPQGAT

On to “Serum Amyloid P component (SAP), wildtype (from UniProt P02743 20-223) (natural protein)”, for which the IC50 of inhibition of fibrocyte differentiation of human PBMCs turned out to be 2.9 nM.
